Article PMC3616739

B1: SMYD1 DNA 40 bp (dsDNA)
DNA 1: CAGGCTGGTCTTGAACTCCTGACCTCAGATGATCCATGTG
DNA 2: CACATGGATCATCTGAGGTCAGGAGTTCAAGACCAGCCTG
B2: non-specific DNA 40 bp (dsDNA)
DNA 1: CTGCAGAAGCTTGGTGCCGGGGCCGCTCAATTGGTCGTAG
DNA 2: CTACGACCAATTGAGCGGCCCCGGCACCAAGCTTCTGCAG

Target: GST-LEDGF PWWP (UniProt O75475 1-100)
Assay: EMSA

GST-LEDGF PWWP, sequence (O75475 1-100): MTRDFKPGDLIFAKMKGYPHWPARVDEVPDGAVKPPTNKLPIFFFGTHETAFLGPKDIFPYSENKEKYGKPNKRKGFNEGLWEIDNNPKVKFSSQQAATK

Binder | Kd
B1 | ~1500 nM
B2 | ~1500 nM
